One data set deals with hTERT-HMEC. Briefly: percentage of EdU-negative (G0-arrested) nuclei per well, 72 h; higher = more G0 arrest. The conditions noted are these: reference: sequence is the full UniProt precursor, the tested protein was the secreted form or ectodomain.
In a further data set the test system is MCF7. Described as above. Particulars: reference: sequence is the full UniProt precursor, the tested protein was the secreted form or ectodomain.
Setting [1] is: protein concentration 0.0267275 µM.
Where [2] appears, read: protein concentration 0.267275 µM.
The mark [3] stands for this setting: protein concentration 0.0111429 µM.
[4] abbreviates: protein concentration 0.111429 µM.
Where [5] appears, read: protein concentration 0.0225 µM.
The mark [6] stands for this setting: protein concentration 0.00771429 µM.
The mark [7] stands for this setting: protein concentration 0.0771429 µM.
Where [8] appears, read: protein concentration 0.01547 µM.
Setting [9] is: protein concentration 0.1547 µM.
The mark [10] stands for this setting: protein concentration 0.03125 µM.
The mark [11] stands for this setting: protein concentration 0.3125 µM.

These results are taken from the supplement of paper PMC11316812.

± gives the standard deviation of the averaged measurements.
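Note: secreted proteins added to cultured cells, EdU pulse at the end, nuclei found by Hoechst imaging, EdU status from nuclear versus surrounding ring intensity ratio, PBS as neutral control.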

Chain of Q9ULB1 (chain, as listed by the source): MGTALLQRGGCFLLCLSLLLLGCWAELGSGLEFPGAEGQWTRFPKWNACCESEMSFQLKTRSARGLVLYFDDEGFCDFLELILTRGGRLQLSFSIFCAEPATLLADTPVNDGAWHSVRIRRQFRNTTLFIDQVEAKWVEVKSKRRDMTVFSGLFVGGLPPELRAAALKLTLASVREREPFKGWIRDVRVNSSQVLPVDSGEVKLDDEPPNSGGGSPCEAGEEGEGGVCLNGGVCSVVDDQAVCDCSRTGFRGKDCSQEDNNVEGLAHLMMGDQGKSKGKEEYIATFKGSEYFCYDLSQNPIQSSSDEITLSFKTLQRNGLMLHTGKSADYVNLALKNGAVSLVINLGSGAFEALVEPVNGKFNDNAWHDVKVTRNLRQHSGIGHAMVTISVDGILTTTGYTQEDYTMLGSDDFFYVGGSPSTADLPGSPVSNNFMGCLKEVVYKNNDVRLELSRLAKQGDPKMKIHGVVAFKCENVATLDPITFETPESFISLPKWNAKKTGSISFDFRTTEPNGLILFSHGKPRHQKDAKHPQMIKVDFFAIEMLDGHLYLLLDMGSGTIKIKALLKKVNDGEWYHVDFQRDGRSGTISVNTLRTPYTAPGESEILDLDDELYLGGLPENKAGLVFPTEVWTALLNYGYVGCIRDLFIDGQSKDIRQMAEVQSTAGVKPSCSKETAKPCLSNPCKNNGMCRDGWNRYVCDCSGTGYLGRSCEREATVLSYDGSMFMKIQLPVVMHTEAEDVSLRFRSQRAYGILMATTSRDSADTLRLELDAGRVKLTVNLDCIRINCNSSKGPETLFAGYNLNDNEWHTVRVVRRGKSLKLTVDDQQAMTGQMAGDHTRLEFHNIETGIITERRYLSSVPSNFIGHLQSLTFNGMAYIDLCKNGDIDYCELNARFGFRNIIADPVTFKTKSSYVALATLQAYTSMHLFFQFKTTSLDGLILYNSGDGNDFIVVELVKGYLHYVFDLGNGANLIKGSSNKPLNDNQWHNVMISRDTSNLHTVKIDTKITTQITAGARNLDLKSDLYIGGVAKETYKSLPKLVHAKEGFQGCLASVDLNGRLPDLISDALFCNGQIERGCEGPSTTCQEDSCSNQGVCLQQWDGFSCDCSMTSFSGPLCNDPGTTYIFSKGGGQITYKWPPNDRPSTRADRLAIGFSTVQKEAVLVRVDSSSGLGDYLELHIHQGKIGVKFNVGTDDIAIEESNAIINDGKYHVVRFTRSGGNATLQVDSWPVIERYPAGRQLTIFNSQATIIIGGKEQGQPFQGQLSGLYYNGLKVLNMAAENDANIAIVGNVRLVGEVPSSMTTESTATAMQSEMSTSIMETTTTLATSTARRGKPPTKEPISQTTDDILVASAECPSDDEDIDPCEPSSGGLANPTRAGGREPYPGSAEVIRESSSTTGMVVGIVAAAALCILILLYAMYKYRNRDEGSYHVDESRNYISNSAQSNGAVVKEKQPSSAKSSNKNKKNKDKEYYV

For “MRLRRLALFPGVALLLAAARLAAASDVLELTDDNFESRISDTGSAGLMLVEFFAPWCGHCKRLAPEYEAAATRLKGIVPLAKVDCTANTNTCNKYGVSGYPTLKIFRDGEEAGAYDGPRTADGIVSHLKKQAGPASVPLRTEEEFKKFISDKDASIVGFFDDSFSEAHSEFLKAASNLRDNYRFAHTNVESLVNEYDDNGEGIILFRPSHLTNKFEDKTVAYTEQKMTSGKIKKFIQENIFGICPHMTEDNKDLIQGKDLLIAYYDVDYEKNAKGSNYWRNRVMMVAKKFLDAGHKLNFAVASRKTFSHELSDFGLESTAGEIPVVAIRTAKGEKFVMQEEFSRDGKALERFLQDYFDGNLKRYLKSEPIPESNDGPVKVVVAENFDEIVNNENKDVLIEFYAPWCGHCKNLEPKYKELGEKLSKDPNIVIAKMDATANDVPSPYEVRGFPTIYFSPANKKLNPKKYEGGRELSDFISYLQREATNPPVIQEEKPKKKKKAQEDL”, the “percentage of EdU-negative” value was 5.82 ± 1% in the data set on hTERT-HMEC (setting [1]), 5.84 ± 0.16% in the data set with hTERT-HMEC (setting [2]), 23.5 ± 0.4% in the data set on MCF7 (setting [1]) and 26.1 ± 0.34% with MCF7 (setting [2]).
As for Q9ULB1, the “percentage of EdU-negative” value in the data set with hTERT-HMEC (setting [3]) turned out to be 5.3 ± 0.36%; in the data set with hTERT-HMEC (setting [4]) it was 9.04 ± 0.11%; in the data set on MCF7 (setting [3]), 25.5 ± 2.5%; with MCF7 (setting [4]), 26.3 ± 2.4%.
For the substance “MAVKLGTLLLALALGLAQPASARRKLLVFLLDGFRSDYISDEALESLPGFKEIVSRGVKVDYLTPDFPSLSYPNYYTLMTGRHCEVHQMIGNYMWDPTTNKSFDIGVNKDSLMPLWWNGSEPLWVTLTKAKRKVYMYYWPGCEVEILGVRPTYCLEYKNVPTDINFANAVSDALDSFKSGRADLAAIYHERIDVEGHHYGPASPQRKDALKAVDTVLKYMTKWIQERGLQDRLNVIIFSDHGMTDIFWMDKVIELNKYISLNDLQQVKDRGPVVSLWPAPGKHSEIYNKLSTVEHMTVYEKEAIPSRFYYKKGKFVSPLTLVADEGWFITENREMLPFWMNSTGRREGWQRGWHGYDNELMDMRGIFLAFGPDFKSNFRAAPIRSVDVYNVMCNVVGITPLPNNGSWSRVMCMLKGRASTAPPVWPSHCALALILLFLLA [Q6UWR7]”, the “percentage of EdU-negative” value in the data set with hTERT-HMEC (setting [5]) was found to be 4.73 ± 0.19%; in the data set with hTERT-HMEC (protein concentration 0.225 µM) it was 5.87 ± 0.68%; in the data set with MCF7 (setting [5]), 25.6 ± 0.4%; in the data set with MCF7 (protein concentration 0.225 µM), 27.791 ± 0.0037%.
For “MALDYLLLLLLASAVAAMEETLMDTRTATAELGWTANPASGWEEVSGYDENLNTIRTYQVCNVFEPNQNNWLLTTFINRRGAHRIYTEMRFTVRDCSSLPNVPGSCKETFNLYYYETDSVIATKKSAFWSEAPYLKVDTIAADESFSQVDFGGRLMKVNTEVRSFGPLTRNGFYLAFQDYGACMSLLSVRVFFKKCPSIVQNFAVFPETMTGAESTSLVIARGTCIPNAEEVDVPIKLYCNGDGEWMVPIGRCTCKPGYEPENSVACKACPAGTFKASQEAEGCSHCPSNSRSPAEASPICTCRTGYYRADFDPPEVACTSVPSGPRNVISIVNETSIILEWHPPRETGGRDDVTYNIICKKCRADRRSCSRCDDNVEFVPRQLGLTECRVSISSLWAHTPYTFDIQAINGVSSKSPFPPQHVSVNITTNQAAPSTVPIMHQVSATMRSITLSWPQPEQPNGIILDYEIRYYEKEHNEFNSSMARSQTNTARIDGLRPGMVYVVQVRARTVAGYGKFSGKMCFQTLTDDDYKSELREQLPLIAGSAAAGVVFVVSLVAISIVCSRKRAYSKEAVYSDKLQHYSTGRGSPGMKIYIDPFTYEDPNEAVREFAKEIDVSFVKIEEVIGAGEFGEVYKGRLKLPGKREIYVAIKTLKAGYSEKQRRDFLSEASIMGQFDHPNIIRLEGVVTKSRPVMIITEFMENGALDSFLRQNDGQFTVIQLVGMLRGIAAGMKYLAEMNYVHRDLAARNILVNSNLVCKVSDFGLSRYLQDDTSDPTYTSSLGGKIPVRWTAPEAIAYRKFTSASDVWSYGIVMWEVMSFGERPYWDMSNQDVINAIEQDYRLPPPMDCPAALHQLMLDCWQKDRNSRPRFAEIVNTLDKMIRNPASLKTVATITAVPSQPLLDRSIPDFTAFTTVDDWLSAIKMVQYRDSFLTAGFTSLQLVTQMTSEDLLRIGITLAGHQKKILNSIHSMRVQISQSPTAMA”, the “percentage of EdU-negative” value in the data set on hTERT-HMEC (setting [6]) turned out to be 4.82 ± 0.12%; with hTERT-HMEC (setting [7]), 5.86 ± 0.98%; in the data set on MCF7 (setting [6]) it was 26.7 ± 1.5%; in the data set on MCF7 (setting [7]), 23.4 ± 1.5%.
As to “MSWSLHPRNLILYFYALLFLSSTCVAYVATRDNCCILDERFGSYCPTTCGIADFLSTYQTKVDKDLQSLEDILHQVENKTSEVKQLIKAIQLTYNPDESSKPNMIDAATLKSRKMLEEIMKYEASILTHDSSIRYLQEIYNSNNQKIVNLKEKVAQLEAQCQEPCKDTVQIHDITGKDCQDIANKGAKQSGLYFIKPLKANQQFLVYCEIDGSGNGWTVFQKRLDGSVDFKKNWIQYKEGFGHLSPTGTTEFWLGNEKIHLISTQSAIPYALRVELEDWNGRTSTADYAMFKVGPEADKYRLTYAYFAGGDAGDAFDGFDFGDDPSDKFFTSHNGMQFSTWDNDNDKFEGNCAEQDGSGWWMNKCHAGHLNGVYYQGGTYSKASTPNGYDNGIIWATWKTRWYSMKKTTMKIIPFNRLTIGEGQQHHLGGAKQVRPEHPAETEYDSLYPEDDL”, the “percentage of EdU-negative” value in the data set with hTERT-HMEC (setting [8]) was 5.07 ± 0.17%; in the data set with hTERT-HMEC (setting [9]) it was 5.92 ± 0.15%; with MCF7 (setting [8]) it was 24 ± 1.3%; in the data set with MCF7 (setting [9]), 25 ± 2%.
For “MGPLSAPPCTQHITWKGLLLTASLLNFWNLPITAQVTIEALPPKVSEGKDVLLLVHNLPQNLAGYIWYKGQLMDLYHYITSYVVDGQINIYGPAYTGRETVYSNASLLIQNVTREDAGSYTLHIIKRGDRTRGVTGYFTFNLYLKLPKPYITINNSKPRENKDVLAFTCEPKSENYTYIWWLNGQSLPVSPRVKRPIENRILILPSVTRNETGPYECEIRDRDGGMRSDPVTLNVLYGPDLPSIYPSFTYYRSGENLYLSCFAESNPPAEYFWTINGKFQQSGQKLSIPQITTKHRGLYTCSVRNSATGKESSKSMTVEVSAPSGIGRLPLLNPI”, the “percentage of EdU-negative” value in the data set on hTERT-HMEC (setting [10]) amounted to 4.75 ± 0.52%; in the data set with hTERT-HMEC (setting [11]), 4.28 ± 0.12%; in the data set with MCF7 (setting [10]) it was 24.6 ± 2.5%; in the data set with MCF7 (setting [11]) it was 26.86 ± 0.057%.
